Measurements as given in patent US20240294646A1.

Tests used:
FcγRIIaR = FcγRIIaR (UniProt P12318); test: SPR (Protocol 2), antibody captured on immobilised HER2, receptor as analyte
FcγRIIb [1] = biological target: FcγRIIb (UniProt P31994); test: as above
FcγRIIb [2] = biological target: FcγRIIb (UniProt P31994); test: SPR (Protocol 2); ratio of the fold for FcγRIIb to the fold for FcγRIIaR
[3] = biological target: Soluble FcγRIIaR extracellular domain with C-terminal 10xHis tag (UniProt P12318); test: SPR, antibody captured on HER2, receptor as analyte; affinity fold over wild-type v16463
[4] = biological target: Soluble FcγRIIb extracellular domain with C-terminal 10xHis tag (UniProt P31994); test: as above
[5] = biological target: Soluble FcγRIIb extracellular domain with C-terminal 10xHis tag (UniProt P31994); test: SPR; IIb-Fold / IIaR-Fold (FcγRIIb over FcγRIIaR)
[6] = biological target: Soluble FcγRIIb extracellular domain with C-terminal 10xHis tag (UniProt P31994); test: SPR; FcγRIIb affinity fold against control v27294
[7] = biological target: Soluble FcγRIIb extracellular domain with C-terminal 10xHis tag (UniProt P31994); test: SPR; IIb/IIaR selectivity against control v27294

Chain of FcγRIIaR (P12318 34-217): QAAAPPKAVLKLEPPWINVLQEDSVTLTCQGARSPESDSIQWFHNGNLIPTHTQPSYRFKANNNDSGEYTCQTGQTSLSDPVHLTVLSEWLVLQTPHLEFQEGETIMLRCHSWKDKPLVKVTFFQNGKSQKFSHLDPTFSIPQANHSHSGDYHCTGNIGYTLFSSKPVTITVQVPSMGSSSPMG
Chain of Soluble FcγRIIb extracellular domain with C-terminal 10xHis tag (P31994 other isoform, or with tags, fused parts or gaps): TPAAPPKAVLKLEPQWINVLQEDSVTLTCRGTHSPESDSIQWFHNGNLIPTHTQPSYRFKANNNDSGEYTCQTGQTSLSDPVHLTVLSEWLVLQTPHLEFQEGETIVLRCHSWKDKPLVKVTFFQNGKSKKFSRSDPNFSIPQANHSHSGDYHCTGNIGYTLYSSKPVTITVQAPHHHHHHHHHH
Chain of FcγRIIb (P31994 43-217): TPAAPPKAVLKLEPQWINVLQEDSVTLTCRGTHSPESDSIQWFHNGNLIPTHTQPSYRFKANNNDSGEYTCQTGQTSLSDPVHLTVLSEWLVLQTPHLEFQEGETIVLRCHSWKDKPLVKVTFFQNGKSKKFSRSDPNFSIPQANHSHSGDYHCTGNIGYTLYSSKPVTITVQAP
Chain of Soluble FcγRIIaR extracellular domain with C-terminal 10xHis tag (P12318 other isoform, or with tags, fused parts or gaps): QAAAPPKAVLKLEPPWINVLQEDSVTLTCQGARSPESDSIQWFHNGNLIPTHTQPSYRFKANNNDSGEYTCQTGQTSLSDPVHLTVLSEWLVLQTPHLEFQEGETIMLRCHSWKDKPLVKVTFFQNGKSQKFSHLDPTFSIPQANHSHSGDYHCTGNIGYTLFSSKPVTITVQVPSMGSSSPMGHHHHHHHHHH

Row | IIaR-Fold (fold change in affinity over wild-type) (fold over wild-type) (FcγRIIaR) | IIb-Fold (fold change in affinity over wild-type) (fold over wild-type) (FcγRIIb [1]) | IIb/IIaR Selectivity (IIb-Fold/IIaR-Fold) (FcγRIIb [2]) | IIaR-fold [3] [fold] | IIb-Fold [4] [fold] | IIb Selectivity [5] [fold] | IIb-Fold wrt Control [6] [fold] | IIb Selectivity Improvement wrt Control [7] [fold] | Substance
1 | 0.9 | 2.1 | 2.4 |  |  |  |  |  | Variant 16490 (chain A: G236D / chain B: G236D), one-armed trastuzumab antibody, Scaffold 2
2 | 0.3 | 0.8 | 3.1 |  |  |  |  |  | Variant 16493 (chain A: G236N / chain B: G236N), one-armed trastuzumab antibody, Scaffold 2
3 | 0.04 | 0.2 | 4.5 |  |  |  |  |  | Variant 19503 (chain A: G236N_G237A / chain B: G236N_G237A), one-armed trastuzumab antibody, Scaffold 2
4 | 0.05 | 0.2 | 3.3 |  |  |  |  |  | Variant 19504 (chain A: G236N_G237F / chain B: G236N_G237F), one-armed trastuzumab antibody, Scaffold 2
5 | 1.8 | 0.8 | 0.4 |  |  |  |  |  | Variant 19507 (chain A: G236E / chain B: G236E), one-armed trastuzumab antibody, Scaffold 2
6 |  |  |  | 3.8 | 49.9 | 13 | 0.5 | 1 | Variant v26712, A_D270A_strat2, one-armed trastuzumab antibody
7 |  |  |  | 3.8 | 57.9 | 15.2 | 0.6 | 1.1 | Variant v26715, A_D270I_strat2, one-armed trastuzumab antibody
8 |  |  |  | 6.4 | 86.7 | 13.5 | 0.9 | 1 | Variant v26716, A_D270F_strat2, one-armed trastuzumab antibody
9 |  |  |  | 3.7 | 53.5 | 14.5 | 0.6 | 1.1 | Variant v26717, A_D270W_strat2, one-armed trastuzumab antibody
10 |  |  |  | 4.5 | 54.6 | 12.1 | 0.6 | 0.9 | Variant v26718, A_D270Y_strat2, one-armed trastuzumab antibody
11 |  |  |  | 4.9 | 64.2 | 13.2 | 0.7 | 1 | Variant v26719, A_D270T_strat2, one-armed trastuzumab antibody
12 |  |  |  | 3.9 | 49.5 | 12.7 | 0.5 | 0.9 | Variant v26720, A_D270S_strat2, one-armed trastuzumab antibody
13 |  |  |  | 3.6 | 51.7 | 14.6 | 0.6 | 1.1 | Variant v26721, A_D270Q_strat2, one-armed trastuzumab antibody
14 |  |  |  | 4 | 67.4 | 16.7 | 0.7 | 1.3 | Variant v26722, A_D270N_strat2, one-armed trastuzumab antibody
15 |  |  |  | 7.3 | 109 |  | 1.2 | 1.1 | Variant v26723, A_D270E_strat2, one-armed trastuzumab antibody
16 |  |  |  | 4.1 | 61.7 | 14.9 | 0.7 | 1.1 | Variant v26726, A_D270H_strat2, one-armed trastuzumab antibody
17 |  |  |  | 4.8 | 65.4 | 13.5 | 0.7 |  | Variant v26728, A_P271G_strat2, one-armed trastuzumab antibody
18 |  |  |  | 3.6 | 54.4 |  | 0.6 | 1.1 | Variant v26730, A_P271V_strat2, one-armed trastuzumab antibody
19 |  |  |  | 4.5 | 66.6 | 14.7 | 0.7 | 1.1 | Variant v26731, A_P271L_strat2, one-armed trastuzumab antibody

Row | IIaR-Fold (fold change in affinity over wild-type) (fold over wild-type) (FcγRIIaR) | IIb-Fold (fold change in affinity over wild-type) (fold over wild-type) (FcγRIIb [1]) | IIb/IIaR Selectivity (IIb-Fold/IIaR-Fold) (FcγRIIb [2]) | IIaR-fold [3] [fold] | IIb-Fold [4] [fold] | IIb Selectivity [5] [fold] | IIb-Fold wrt Control [6] [fold] | IIb Selectivity Improvement wrt Control [7] [fold] | Substance
20 |  |  |  | 4.4 | 56.9 | 12.9 | 0.6 |  | Variant v26732, A_P271I_strat2, one-armed trastuzumab antibody
21 |  |  |  | 4.3 | 52.5 | 12.3 | 0.6 | 0.9 | Variant v26734, A_P271W_strat2, one-armed trastuzumab antibody
22 |  |  |  | 4 | 56.1 | 14.1 | 0.6 | 1.1 | Variant v26738, A_P271Q_strat2, one-armed trastuzumab antibody
23 |  |  |  | 3.4 | 50.9 | 14.9 | 0.5 | 1.1 | Variant v26739, A_P271N_strat2, one-armed trastuzumab antibody
24 |  |  |  | 3.4 | 50.5 | 14.9 | 0.5 | 1.1 | Variant v26740, A_P271D_strat2, one-armed trastuzumab antibody
25 |  |  |  | 5.1 | 59.3 | 11.7 | 0.6 | 0.9 | Variant v26741, A_P271E_strat2, one-armed trastuzumab antibody
26 |  |  |  | 4.4 | 47.1 | 10.7 | 0.5 | 0.8 | Variant v26742, A_P271R_strat2, one-armed trastuzumab antibody
27 |  |  |  | 4.3 | 55.7 | 12.9 | 0.6 | 1 | Variant v26743, A_P271K_strat2, one-armed trastuzumab antibody
28 |  |  |  | 3.9 | 59.3 | 15.1 | 0.6 | 1.1 | Variant v26744, A_P271H_strat2, one-armed trastuzumab antibody
29 |  |  |  | 4.5 | 51.6 | 11.6 | 0.6 | 0.9 | Variant v26745, A_E272G_strat2, one-armed trastuzumab antibody
30 |  |  |  | 4.5 | 70.8 | 15.9 | 0.8 | 1.2 | Variant v26746, A_E272A_strat2, one-armed trastuzumab antibody
31 |  |  |  | 5.3 | 81.3 | 15.2 | 0.9 | 1.1 | Variant v26748, A_E272L_strat2, one-armed trastuzumab antibody
32 |  |  |  | 6.1 | 83.8 | 13.7 | 0.9 | 1 | Variant v26749, A_E272I_strat2, one-armed trastuzumab antibody
33 |  |  |  | 4.5 | 61.2 | 13.5 | 0.7 | 1 | Variant v26750, A_E272F_strat2, one-armed trastuzumab antibody
34 |  |  |  | 4.3 | 62.8 | 14.7 | 0.7 | 1.1 | Variant v26753, A_E272T_strat2, one-armed trastuzumab antibody
35 |  |  |  | 4.1 | 61 | 14.7 | 0.7 | 1.1 | Variant v26754, A_E272S_strat2, one-armed trastuzumab antibody
36 |  |  |  | 3.6 | 57.6 | 15.8 | 0.6 | 1.2 | Variant v26756, A_E272N_strat2, one-armed trastuzumab antibody
37 |  |  |  | 4.9 | 66.6 | 13.5 | 0.7 | 1 | Variant v26757, A_E272D_strat2, one-armed trastuzumab antibody
38 |  |  |  | 4.9 | 74.1 | 15.3 | 0.8 | 1.1 | Variant v26760, A_E272H_strat2, one-armed trastuzumab antibody
